{
  "source": "paper PMC4351059",
  "origin": "cited, not measured here",
  "target": "Cys215 (UniProt position 215, PVVVHCSAGIG)",
  "details": "not stated (reduced free enzyme implied)",
  "data": [
    {"substance": "Protein-tyrosine phosphatase 1B (PTP1B) (Homo sapiens (as described in this article; the cited source title says 'mammalian protein-tyrosine-phosphatase PTP1'))", "values": [
      {"measurement": "pKa", "value": 5.6}
    ]}
  ]
}
